Assay results from publication PMC8666976.
Where two headings read alike, the source gives them in different places.

Assays:
human C3b (human) [1] = molecular target: human C3b (human) (UniProt P01024); test: ELISA; plates coated with human C3b at 15 nM overnight at 4°C in 50 mM NaHCO3 buffer pH 9.6, blocked with 4% BSA in PBS-T; serially diluted FH CCP 15–20 or CCP 18–20 samples (concentrated supernatants) incubated 1 h at 37°C; bound FH detected with goat antiserum to human FH
human C3b (human) [2] = molecular target: human C3b (human) (UniProt P01024); test: as above; remark: listed apart in the source

Sequence of UniProt P01024 (P01024 749-1663, chain 1 of 2): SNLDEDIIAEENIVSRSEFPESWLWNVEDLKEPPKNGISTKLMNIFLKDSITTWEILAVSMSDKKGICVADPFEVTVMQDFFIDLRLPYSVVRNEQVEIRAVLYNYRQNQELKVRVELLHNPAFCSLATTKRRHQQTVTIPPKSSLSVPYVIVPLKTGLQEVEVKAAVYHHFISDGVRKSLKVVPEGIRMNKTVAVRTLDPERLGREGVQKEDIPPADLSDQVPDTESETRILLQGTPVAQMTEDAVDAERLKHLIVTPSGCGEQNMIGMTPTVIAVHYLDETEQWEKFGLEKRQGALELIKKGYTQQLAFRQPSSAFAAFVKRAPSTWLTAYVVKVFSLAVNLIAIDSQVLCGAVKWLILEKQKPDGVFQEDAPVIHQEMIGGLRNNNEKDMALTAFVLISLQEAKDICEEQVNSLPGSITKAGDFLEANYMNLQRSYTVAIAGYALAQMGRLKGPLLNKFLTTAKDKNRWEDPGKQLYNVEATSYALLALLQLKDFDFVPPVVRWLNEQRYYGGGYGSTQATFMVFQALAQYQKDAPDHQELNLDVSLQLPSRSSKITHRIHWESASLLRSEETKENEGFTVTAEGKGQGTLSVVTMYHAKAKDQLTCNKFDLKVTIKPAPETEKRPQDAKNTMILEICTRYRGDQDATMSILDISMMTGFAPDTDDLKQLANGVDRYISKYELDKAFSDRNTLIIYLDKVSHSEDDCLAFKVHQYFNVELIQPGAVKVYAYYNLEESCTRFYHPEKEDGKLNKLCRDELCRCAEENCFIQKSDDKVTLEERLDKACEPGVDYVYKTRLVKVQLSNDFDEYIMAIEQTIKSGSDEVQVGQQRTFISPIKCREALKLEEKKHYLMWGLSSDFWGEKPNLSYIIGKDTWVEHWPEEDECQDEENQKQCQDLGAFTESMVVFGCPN
Sequence of UniProt P01024 (P01024 749-1663, chain 2 of 2): as the sequence (P01024 749-1663, chain 1 of 2) above

- percent decrease in C3b binding compared to WT (human C3b (human) [1]): 30%
- percent decrease in C3b binding compared to WT (human C3b (human) [2]): 35%
Substance: Factor H CCP 15–20 fragment, variant T956M (domain or fragment)
